# According to publication PMC6255812, “Structural basis for activation of plasma-membrane Ca^2+-ATPase by calmodulin” (Communications Biology, 2018):
# B1: full-length ACA8 (plasma-membrane Ca2+-ATPase ACA8) (enzyme)
# chain: MTSLLKSSPGRRRGGDVESGKSEHADSDSDTFYIPSKNASIERLQQWRKAALVLNASRRFRYTLDLKKEQETREMRQKIRSHAHALLAANRFMDMGRESGVEKTTGPATPAGDFGITPEQLVIMSKDHNSGALEQYGGTQGLANLLKTNPEKGISGDDDDLLKRKTIYGSNTYPRKKGKGFLRFLWDACHDLTLIILMVAAVASLALGIKTEGIKEGWYDGGSIAFAVILVIVVTAVSDYKQSLQFQNLNDEKRNIHLEVLRGGRRVEISIYDIVVGDVIPLNIGNQVPADGVLISGHSLALDESSMTGESKIVNKDANKDPFLMSGCKVADGNGSMLVTGVGVNTEWGLLMASISEDNGEETPLQVRLNGVATFIGSIGLAVAAAVLVILLTRYFTGHTKDNNGGPQFVKGKTKVGHVIDDVVKVLTVAVTIVVVAVPEGLPLAVTLTLAYSMRKMMADKALVRRLSACETMGSATTICSDKTGTLTLNQMTVVESYAGGKKTDTEQLPATITSLVVEGISQNTTGSIFVPEGGGDLEYSGSPTEKAILGWGVKLGMNFETARSQSSILHAFPFNSEKKRGGVAVKTADGEVHVHWKGASEIVLASCRSYIDEDGNVAPMTDDKASFFKNGINDMAGRTLRCVALAFRTYEAEKVPTGEELSKWVLPEDDLILLAIVGIKDPCRPGVKDSVVLCQNAGVKVRMVTGDNVQTARAIALECGILSSDADLSEPTLIEGKSFREMTDAERDKISDKISVMGRSSPNDKLLLVQSLRRQGHVVAVTGDGTNDAPALHEADIGLAMGIAGTEVAKESSDIIILDDNFASVVKVVRWGRSVYANIQKFIQFQLTVNVAALVINVVAAISSGDVPLTAVQLLWVNLIMDTLGALALATEPPTDHLMGRPPVGRKEPLITNIMWRNLLIQAIYQVSVLLTLNFRGISILGLEHEVHEHATRVKNTIIFNAFVLCQAFNEFNARKPDEKNIFKGVIKNRLFMGIIVITLVLQVIIVEFLGKFASTTKLNWKQWLICVGIGVISWPLALVGKFIPVPAAPISNKLKVLKFWGKKKNSSGEGSL
# notes: Integral membrane protein; in most experiments embedded in MSP1D1 nanodiscs (POPC, POPC/POPG, POPC/soy-PI or deuterated stealth nanodiscs); The nanodisc belt protein is a carrier and not a partner; also called apo-ACA8; ACA8-ND; source: used DDM-solubilised or reconstituted in MSP1D1 nanodiscs (Superdex200)
# B2: fluorescein-labeled regulatory domain of ACA8 (ACA8RD, residues 1-130) (domain or fragment)
# chain: CMTSLLKSSPGRRRGGDVESGKSEHADSDSDTFYIPSKNASIERLQQWRKAALVLNASRRFRYTLDLKKEQETREMRQKIRSHAHALLAANRFMDMGRESGVEKTTGPATPAGDFGITPEQLVIMSKDHNS
# modifications: Alexa Fluor 488 C5 maleimide (the paper also calls it fluorescein) for labelling of the introduced cysteine
# notes: a cysteine introduced right before the first residue of the regulatory domain, for site specific labeling with thiol-reactive probes; ACA8 regulatory domain, residues 1-130; also called labeled RD; not shown: His6, N-terminal, cleaved; lipoamyl domain, N-terminal, cleaved
# Columns and labels:
# [1] = biological target: T1, fluorescein-labeled CaM (CaM7 from A. thaliana) (A. thaliana, UniProt P59220 1-149, Alexa Fluor 488 C5 maleimide label (the paper also calls it fluorescein-labeled and FITC-labeled); site not stated); assay: fluorescence polarisation; fluorescence anisotropy; full-length ACA8 in POPC nanodiscs titrated into 15 nM labelled CaM; 20 °C; 30 mM Tris pH 8.0, 150 mM NaCl, 2 mM CaCl2, 0.5 mM TCEP; one-site model; apparent; conditions: both partners purified
# T1 construct: calmodulin 7 (CaM7), A. thaliana; Same protein as m2 with a thiol-reactive fluorophore; also called FITC-labeled CaM; source: E. coli BL21 Gold (DE3), purified (HiTrap Phenyl HP), labelled, PD10 column
# [2] = biological target: T2, ACA8core (core of ACA8, residues 131-1074, construct lacking the regulatory domain) (UniProt Q9LF79 131-1074); assay: fluorescence polarisation; fluorescence anisotropy; 25 µM ACA8core in POPC nanodiscs titrated into 50 nM labelled ACA8RD; 20 °C; 30 mM Tris pH 8.0, 150 mM NaCl, 2 mM CaCl2, 0.5 mM TCEP; one-site model; conditions: both partners purified
# T2 construct: Embedded in MSP1D1/POPC nanodiscs in the assay; also called core enzyme; ACA8 mutant lacking the regulatory domain
# T2 sequence (looked up): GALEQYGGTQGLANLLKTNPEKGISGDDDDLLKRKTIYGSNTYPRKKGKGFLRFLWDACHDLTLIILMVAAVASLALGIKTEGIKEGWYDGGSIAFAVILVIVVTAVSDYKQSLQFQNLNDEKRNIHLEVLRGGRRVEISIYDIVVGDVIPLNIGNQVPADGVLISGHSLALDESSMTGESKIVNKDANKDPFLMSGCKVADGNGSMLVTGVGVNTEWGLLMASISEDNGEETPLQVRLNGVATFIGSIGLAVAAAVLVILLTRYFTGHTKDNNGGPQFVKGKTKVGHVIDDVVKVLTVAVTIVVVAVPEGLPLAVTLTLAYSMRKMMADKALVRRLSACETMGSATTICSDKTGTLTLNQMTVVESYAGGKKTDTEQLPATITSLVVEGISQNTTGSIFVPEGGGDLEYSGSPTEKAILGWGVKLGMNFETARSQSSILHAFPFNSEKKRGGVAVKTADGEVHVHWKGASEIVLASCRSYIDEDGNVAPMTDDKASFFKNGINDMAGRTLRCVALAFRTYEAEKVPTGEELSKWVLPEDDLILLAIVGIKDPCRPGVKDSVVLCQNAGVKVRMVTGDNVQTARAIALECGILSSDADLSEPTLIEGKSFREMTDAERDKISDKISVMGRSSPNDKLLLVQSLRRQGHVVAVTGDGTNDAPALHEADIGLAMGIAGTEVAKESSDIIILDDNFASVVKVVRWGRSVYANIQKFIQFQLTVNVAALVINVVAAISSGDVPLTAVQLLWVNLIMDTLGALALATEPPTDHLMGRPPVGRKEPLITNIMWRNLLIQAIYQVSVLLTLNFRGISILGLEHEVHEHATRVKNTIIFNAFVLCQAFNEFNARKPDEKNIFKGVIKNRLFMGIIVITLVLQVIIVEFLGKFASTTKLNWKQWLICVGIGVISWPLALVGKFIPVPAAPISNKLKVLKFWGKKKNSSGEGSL
Binder,Kd [1],Kd [2]
B1,18 nM,
B2,,1700 nM
